Measured values taken from patent publication US20250361268A1, “NOVEL ANTI-INFLAMMATORY PEPTIDE AND USE THEREOF” (NOVACELL TECHNOLOGY INC., priority 2022, published 2025).

T1: FPR1 (UniProt P21462 1-350, limits assumed)
T1 sequence (looked up): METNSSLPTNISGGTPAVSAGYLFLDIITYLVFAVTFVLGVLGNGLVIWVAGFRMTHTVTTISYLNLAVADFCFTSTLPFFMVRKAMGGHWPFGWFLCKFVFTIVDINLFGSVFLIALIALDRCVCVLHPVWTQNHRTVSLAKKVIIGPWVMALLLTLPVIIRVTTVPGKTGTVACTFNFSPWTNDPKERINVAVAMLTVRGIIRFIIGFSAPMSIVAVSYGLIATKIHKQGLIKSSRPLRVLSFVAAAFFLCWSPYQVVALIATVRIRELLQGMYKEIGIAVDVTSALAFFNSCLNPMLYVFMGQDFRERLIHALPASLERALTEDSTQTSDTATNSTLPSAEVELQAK

T2: formyl peptide receptor 2 (FPR2) (UniProt P25090 1-351, limits assumed)
T2 sequence (looked up): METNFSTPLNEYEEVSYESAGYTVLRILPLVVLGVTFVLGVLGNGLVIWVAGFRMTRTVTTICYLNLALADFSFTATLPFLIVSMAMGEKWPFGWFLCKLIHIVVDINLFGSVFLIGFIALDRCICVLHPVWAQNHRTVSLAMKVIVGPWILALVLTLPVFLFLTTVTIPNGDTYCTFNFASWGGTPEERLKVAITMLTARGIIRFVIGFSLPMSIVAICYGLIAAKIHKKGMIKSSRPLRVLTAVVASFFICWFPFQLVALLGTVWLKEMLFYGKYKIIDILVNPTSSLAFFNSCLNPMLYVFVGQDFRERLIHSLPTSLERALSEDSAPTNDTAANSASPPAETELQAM

B1: peptide of SEQ ID NO 5 (peptide)
peptide: RMRYKVM
HELM: PEPTIDE1{R.M.R.Y.K.V.[dM].[am]}$$$$V2.0; N-terminus assumed
SMILES: CSCC[C@H](NC(=O)[C@@H](N)CCCNC(=N)N)C(=O)N[C@@H](CCCNC(=N)N)C(=O)N[C@@H](Cc1ccc(O)cc1)C(=O)N[C@@H](CCCCN)C(=O)N[C@H](C(=O)N[C@H](CCSC)C(N)=O)C(C)C
B2: peptide of SEQ ID NO 46 (peptide)
peptide: PMRYKYM
HELM: PEPTIDE1{P.M.R.Y.K.Y.[dM].[am]}$$$$V2.0; N-terminus assumed
SMILES: CSCC[C@H](NC(=O)[C@@H]1CCCN1)C(=O)N[C@@H](CCCNC(=N)N)C(=O)N[C@@H](Cc1ccc(O)cc1)C(=O)N[C@@H](CCCCN)C(=O)N[C@@H](Cc1ccc(O)cc1)C(=O)N[C@H](CCSC)C(N)=O
B3: peptide of SEQ ID NO 4 (peptide)
peptide: KWKYKVM
HELM: PEPTIDE1{[ac].K.W.K.Y.K.V.[dM].[am]}$$$$V2.0
SMILES: CSCC[C@@H](NC(=O)[C@@H](NC(=O)[C@H](CCCCN)NC(=O)[C@H](Cc1ccc(O)cc1)NC(=O)[C@H](CCCCN)NC(=O)[C@H](Cc1c[nH]c2ccccc12)NC(=O)[C@H](CCCCN)NC(C)=O)C(C)C)C(N)=O
B4: peptide of SEQ ID NO 45 (peptide)
peptide: HMRYKYM
HELM: PEPTIDE1{[CCCC(=O)[*:2]].H.M.R.Y.K.Y.[dM].[am]}$$$$V2.0
SMILES: CCCC(=O)N[C@@H](Cc1c[nH]cn1)C(=O)N[C@@H](CCSC)C(=O)N[C@@H](CCCNC(=N)N)C(=O)N[C@@H](Cc1ccc(O)cc1)C(=O)N[C@@H](CCCCN)C(=O)N[C@@H](Cc1ccc(O)cc1)C(=O)N[C@H](CCSC)C(N)=O
B5: peptide of SEQ ID NO 1 (peptide)
peptide: RWRYKVM
HELM: PEPTIDE1{R.W.R.Y.K.V.[dM].[am]}$$$$V2.0; N-terminus assumed
SMILES: CSCC[C@@H](NC(=O)[C@@H](NC(=O)[C@H](CCCCN)NC(=O)[C@H](Cc1ccc(O)cc1)NC(=O)[C@H](CCCNC(=N)N)NC(=O)[C@H](Cc1c[nH]c2ccccc12)NC(=O)[C@@H](N)CCCNC(=N)N)C(C)C)C(N)=O
B6: peptide of SEQ ID NO 114 (peptide)
peptide: MKYWPM
HELM: PEPTIDE1{[ac].M.K.Y.W.P.[dM].[am]}$$$$V2.0
SMILES: CSCC[C@H](NC(C)=O)C(=O)N[C@@H](CCCCN)C(=O)N[C@@H](Cc1ccc(O)cc1)C(=O)N[C@@H](Cc1c[nH]c2ccccc12)C(=O)N1CCC[C@H]1C(=O)N[C@H](CCSC)C(N)=O
B7: peptide of SEQ ID NO 117 (peptide)
peptide: RWRYWPM
HELM: PEPTIDE1{[ac].R.W.R.Y.W.P.[dM].[am]}$$$$V2.0
SMILES: CSCC[C@@H](NC(=O)[C@@H]1CCCN1C(=O)[C@H](Cc1c[nH]c2ccccc12)NC(=O)[C@H](Cc1ccc(O)cc1)NC(=O)[C@H](CCCNC(=N)N)NC(=O)[C@H](Cc1c[nH]c2ccccc12)NC(=O)[C@H](CCCNC(=N)N)NC(C)=O)C(N)=O
B8: peptide of SEQ ID NO 137 (peptide)
peptide: IKYKVM
HELM: PEPTIDE1{[CCCCCCCC(=O)[*:2]].I.K.Y.K.V.[dM].[am]}$$$$V2.0
SMILES: CCCCCCCC(=O)N[C@H](C(=O)N[C@@H](CCCCN)C(=O)N[C@@H](Cc1ccc(O)cc1)C(=O)N[C@@H](CCCCN)C(=O)N[C@H](C(=O)N[C@H](CCSC)C(N)=O)C(C)C)[C@@H](C)CC
B9: peptide of SEQ ID NO 113 (peptide)
peptide: MKYWPM
HELM: PEPTIDE1{M.K.Y.W.P.[dM].[am]}$$$$V2.0; N-terminus assumed
SMILES: CSCC[C@H](N)C(=O)N[C@@H](CCCCN)C(=O)N[C@@H](Cc1ccc(O)cc1)C(=O)N[C@@H](Cc1c[nH]c2ccccc12)C(=O)N1CCC[C@H]1C(=O)N[C@H](CCSC)C(N)=O
B10: peptide of SEQ ID NO 121 (peptide)
peptide: RWRYYPM
HELM: PEPTIDE1{[ac].R.W.R.Y.Y.P.[dM].[am]}$$$$V2.0
SMILES: CSCC[C@@H](NC(=O)[C@@H]1CCCN1C(=O)[C@H](Cc1ccc(O)cc1)NC(=O)[C@H](Cc1ccc(O)cc1)NC(=O)[C@H](CCCNC(=N)N)NC(=O)[C@H](Cc1c[nH]c2ccccc12)NC(=O)[C@H](CCCNC(=N)N)NC(C)=O)C(N)=O
B11: peptide of SEQ ID NO 122 (peptide)
peptide: WRYYPM
HELM: PEPTIDE1{[ac].W.R.Y.Y.P.[dM].[am]}$$$$V2.0
SMILES: CSCC[C@@H](NC(=O)[C@@H]1CCCN1C(=O)[C@H](Cc1ccc(O)cc1)NC(=O)[C@H](Cc1ccc(O)cc1)NC(=O)[C@H](CCCNC(=N)N)NC(=O)[C@H](Cc1c[nH]c2ccccc12)NC(C)=O)C(N)=O
B12: peptide of SEQ ID NO 120 (peptide)
peptide: MRYYPM
HELM: PEPTIDE1{M.R.Y.Y.P.[dM].[am]}$$$$V2.0; N-terminus assumed
SMILES: CSCC[C@H](N)C(=O)N[C@@H](CCCNC(=N)N)C(=O)N[C@@H](Cc1ccc(O)cc1)C(=O)N[C@@H](Cc1ccc(O)cc1)C(=O)N1CCC[C@H]1C(=O)N[C@H](CCSC)C(N)=O
B13: peptide of SEQ ID NO 150 (peptide)
peptide: HKYWPM
HELM: PEPTIDE1{[ac].H.K.Y.W.P.[dM].[am]}$$$$V2.0
SMILES: CSCC[C@@H](NC(=O)[C@@H]1CCCN1C(=O)[C@H](Cc1c[nH]c2ccccc12)NC(=O)[C@H](Cc1ccc(O)cc1)NC(=O)[C@H](CCCCN)NC(=O)[C@H](Cc1c[nH]cn1)NC(C)=O)C(N)=O
B14: peptide of SEQ ID NO 31 (peptide)
peptide: HMRYRVM
HELM: PEPTIDE1{H.M.R.Y.R.V.[dM].[am]}$$$$V2.0; N-terminus assumed
SMILES: CSCC[C@H](NC(=O)[C@@H](N)Cc1c[nH]cn1)C(=O)N[C@@H](CCCNC(=N)N)C(=O)N[C@@H](Cc1ccc(O)cc1)C(=O)N[C@@H](CCCNC(=N)N)C(=O)N[C@H](C(=O)N[C@H](CCSC)C(N)=O)C(C)C
B15: peptide of SEQ ID NO 112 (peptide)
peptide: MRYWPM
HELM: PEPTIDE1{[CCCC(=O)[*:2]].M.R.Y.W.P.[dM].[am]}$$$$V2.0
SMILES: CCCC(=O)N[C@@H](CCSC)C(=O)N[C@@H](CCCNC(=N)N)C(=O)N[C@@H](Cc1ccc(O)cc1)C(=O)N[C@@H](Cc1c[nH]c2ccccc12)C(=O)N1CCC[C@H]1C(=O)N[C@H](CCSC)C(N)=O
B16: peptide of SEQ ID NO 119 (peptide)
peptide: RMRYYPM
HELM: PEPTIDE1{[ac].R.M.R.Y.Y.P.[dM].[am]}$$$$V2.0
SMILES: CSCC[C@H](NC(=O)[C@H](CCCNC(=N)N)NC(C)=O)C(=O)N[C@@H](CCCNC(=N)N)C(=O)N[C@@H](Cc1ccc(O)cc1)C(=O)N[C@@H](Cc1ccc(O)cc1)C(=O)N1CCC[C@H]1C(=O)N[C@H](CCSC)C(N)=O
B17: peptide of SEQ ID NO 115 (peptide)
peptide: MKYWPM
HELM: PEPTIDE1{[CCCC(=O)[*:2]].M.K.Y.W.P.[dM].[am]}$$$$V2.0
SMILES: CCCC(=O)N[C@@H](CCSC)C(=O)N[C@@H](CCCCN)C(=O)N[C@@H](Cc1ccc(O)cc1)C(=O)N[C@@H](Cc1c[nH]c2ccccc12)C(=O)N1CCC[C@H]1C(=O)N[C@H](CCSC)C(N)=O
B18: peptide of SEQ ID NO 151 (peptide)
peptide: HKYWPM
HELM: PEPTIDE1{[CCCC(=O)[*:2]].H.K.Y.W.P.[dM].[am]}$$$$V2.0
SMILES: CCCC(=O)N[C@@H](Cc1c[nH]cn1)C(=O)N[C@@H](CCCCN)C(=O)N[C@@H](Cc1ccc(O)cc1)C(=O)N[C@@H](Cc1c[nH]c2ccccc12)C(=O)N1CCC[C@H]1C(=O)N[C@H](CCSC)C(N)=O
B19: peptide of SEQ ID NO 14 (peptide)
peptide: MRYKVM
HELM: PEPTIDE1{[ac].M.R.Y.K.V.[dM].[am]}$$$$V2.0
SMILES: CSCC[C@H](NC(C)=O)C(=O)N[C@@H](CCCNC(=N)N)C(=O)N[C@@H](Cc1ccc(O)cc1)C(=O)N[C@@H](CCCCN)C(=O)N[C@H](C(=O)N[C@H](CCSC)C(N)=O)C(C)C
B20: peptide of SEQ ID NO 118 (peptide)
peptide: WRYWPM
HELM: PEPTIDE1{W.R.Y.W.P.[dM].[am]}$$$$V2.0; N-terminus assumed
SMILES: CSCC[C@@H](NC(=O)[C@@H]1CCCN1C(=O)[C@H](Cc1c[nH]c2ccccc12)NC(=O)[C@H](Cc1ccc(O)cc1)NC(=O)[C@H](CCCNC(=N)N)NC(=O)[C@@H](N)Cc1c[nH]c2ccccc12)C(N)=O

Target: T1, FPR1
Assay: cell-based or functional assay

Row | EC50 for [Ca2+] | Binder
1 | > 10000 nM | B1
2 | > 10000 nM | B2
3 | > 10000 nM | B3
4 | > 10000 nM | B4
5 | > 10000 nM | B5

Target: T2, formyl peptide receptor 2 (FPR2)
Assay: cell-based or functional assay

Row | EC50 for [Ca2+] | Binder
6 | < 10 nM | B6
7 | < 10 nM | B1
8 | < 10 nM | B2
9 | < 10 nM | B7
10 | < 10 nM | B3
11 | < 10 nM | B8
12 | < 10 nM | B9
13 | < 10 nM | B10
14 | < 10 nM | B11
15 | < 10 nM | B12
16 | < 10 nM | B13
17 | < 10 nM | B14
18 | < 10 nM | B15
19 | < 10 nM | B16
20 | < 10 nM | B4
21 | < 10 nM | B5
22 | < 10 nM | B17
23 | < 10 nM | B18
24 | < 10 nM | B19
25 | < 10 nM | B20
